Patent US6875581

Target: calcineurin (recombinant or partly purified, phosphoserine phosphatase assay)
Assay: cell-based or functional assay

Substance: recombinant human wild-type CuZnSOD (from UniProt P00441 2-154) (enzyme)
- Percentage of FK506 inhibitable RII-phosphopeptide activity after 20 min compared with the activity at 0 min; constant activity (1.67 U): 56%
- Percentage of FK506 inhibitable RII-phosphopeptide activity after 20 min compared with the activity at 0 min; constant protein (3 ug): 70%
- protection of calcineurin after calcium induced redox inactivation: 50 to 100%

Substance: purified human erythrocyte CuZnSOD (Sigma Aldrich) (from UniProt P00441 2-154) (enzyme)
- Percentage of FK506 inhibitable RII-phosphopeptide activity after 20 min compared with the activity at 0 min; constant activity (1.67 U): 57%
- Percentage of FK506 inhibitable RII-phosphopeptide activity after 20 min compared with the activity at 0 min; constant protein (3 ug): 57%
- protection of calcineurin after calcium induced redox inactivation: 50 to 100%

Substance: recombinant human CuZnSOD mutation D90A (from UniProt P00441 2-154) (enzyme)
- Percentage of FK506 inhibitable RII-phosphopeptide activity after 20 min compared with the activity at 0 min; constant activity (1.67 U): 32%
- Percentage of FK506 inhibitable RII-phosphopeptide activity after 20 min compared with the activity at 0 min; constant protein (3 ug): 42%

Substance: recombinant human CuZnSOD mutation G93A (from UniProt P00441 2-154) (enzyme)
- Percentage of FK506 inhibitable RII-phosphopeptide activity after 20 min compared with the activity at 0 min; constant activity (1.67 U): 21%
- Percentage of FK506 inhibitable RII-phosphopeptide activity after 20 min compared with the activity at 0 min; constant protein (3 ug): 16%

Substance: recombinant human CuZnSOD mutation A4V (from UniProt P00441 2-154) (enzyme)
- Percentage of FK506 inhibitable RII-phosphopeptide activity after 20 min compared with the activity at 0 min; constant activity (1.67 U): 8%
- Percentage of FK506 inhibitable RII-phosphopeptide activity after 20 min compared with the activity at 0 min; constant protein (3 ug): 22%
